Test results taken from article PMC9844859, “Appia: Simpler chromatography analysis and visualization” (PLOS ONE, 2023).

Target: T1, Human NEDD4-2-GFP (human, UniProt Q96PU5 1-975)
T1 construct: NEDD4-2 (E3 ubiquitin ligase NEDD4-like), human; also called NEDD4-2-GFP fusion protein; source: Sf9 cells (MOI of 5, 48 hours), purified (TALON resin, SEC)
T1 sequence (looked up): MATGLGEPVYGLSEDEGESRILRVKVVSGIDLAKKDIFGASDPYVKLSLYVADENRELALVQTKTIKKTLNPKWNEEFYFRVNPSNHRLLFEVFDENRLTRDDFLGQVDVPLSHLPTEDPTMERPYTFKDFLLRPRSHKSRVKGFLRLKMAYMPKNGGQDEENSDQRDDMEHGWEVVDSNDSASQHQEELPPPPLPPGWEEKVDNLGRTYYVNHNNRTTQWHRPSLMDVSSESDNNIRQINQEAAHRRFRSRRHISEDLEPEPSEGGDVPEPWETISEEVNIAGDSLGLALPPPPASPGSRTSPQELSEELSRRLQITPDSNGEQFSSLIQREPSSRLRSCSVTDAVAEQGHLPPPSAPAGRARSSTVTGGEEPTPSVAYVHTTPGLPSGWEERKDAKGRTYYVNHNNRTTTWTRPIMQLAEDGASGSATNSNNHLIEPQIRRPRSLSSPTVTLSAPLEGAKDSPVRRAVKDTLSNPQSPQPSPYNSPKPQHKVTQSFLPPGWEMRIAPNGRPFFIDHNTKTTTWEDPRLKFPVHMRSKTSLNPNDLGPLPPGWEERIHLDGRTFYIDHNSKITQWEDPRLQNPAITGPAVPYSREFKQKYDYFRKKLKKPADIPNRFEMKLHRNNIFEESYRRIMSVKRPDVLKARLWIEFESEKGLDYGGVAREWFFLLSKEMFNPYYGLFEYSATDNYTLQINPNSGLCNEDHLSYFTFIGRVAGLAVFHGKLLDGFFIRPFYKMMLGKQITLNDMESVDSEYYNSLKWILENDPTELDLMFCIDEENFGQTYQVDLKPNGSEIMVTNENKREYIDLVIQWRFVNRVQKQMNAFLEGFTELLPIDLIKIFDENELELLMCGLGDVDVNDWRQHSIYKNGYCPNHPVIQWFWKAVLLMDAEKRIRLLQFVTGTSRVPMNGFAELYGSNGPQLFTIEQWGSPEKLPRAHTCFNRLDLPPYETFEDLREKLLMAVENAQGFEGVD
Assay: SEC; fluorescence-detection SEC (FSEC), GFP channel; NEDD4-2-GFP held at 71.2 nM, ENaC αβγ added in equal amounts, five-fold or ten-fold excess; Superose 6 Increase 10/300; TBS (20 mM Tris pH 7.5, 200 mM NaCl) + 0.5 mM DDM
Conditions: both partners purified

B1: triheteromeric αβγ Epithelial Sodium Channel (ENaC αβγ) (complex)
chain 1: MEGNKLEEQDSSPPQSTPGLMKGNKREEQGLGPEPAAPQQPTAEEEALIEFHRSYRELFEFFCNNTTIHGAIRLVCSQHNRMKTAFWAVLWLCTFGMMYWQFGLLFGEYFSYPVSLNINLNSDKLVFPAVTICTLNPYRYPEIKEELEELDRITEQTLFDLYKYSSFTTLVAGSRSRRDLRGTLPHPLQRLRVPPPPHGARRARSVASSLRDNNPQVDWKDWKIGFQLCNQNKSDCFYQTYSSGVDAVREWYRFHYINILSRLPETLPSLEEDTLGNFIFACRFNQVSCNQANYSHFHHPMYGNCYTFNDKNNSNLWMSSMPGINNGLSLMLRAEQNDFIPLLSTVTGARVMVHGQDEPAFMDDGGFNLRPGVETSISMRKETLDRLGGDYGDCTKNGSDVPVENLYPSKYTQQVCIHSCFQESMIKECGCAYIFYPRPQNVEYCDYRKHSSWGYCYYKLQVDFSSDHLGCFTKCRKPCSVTSYQLSAGYSRWPSVTSQEWVFQMLSRQNNYTVNNKRNGVAKVNIFFKELNYKTNSESPSVTMVTLLSNLGSQWSLWFGSSVLSVVEMAELVFDLLVIMFLMLLRRFRSRYWSPGRGGRGAQEVASTLASSPPSHFCPHPMSLSLSQPGPAPSPALTAPPPAYATLGPRPSPGGSAGASSSTCPLGGP
chain 2: MHVKKYLLKGLHRLQKGPGYTYKELLVWYCDNTNTHGPKRIICEGPKKKAMWFLLTLLFAALVCWQWGIFIRTYLSWEVSVSLSVGFKTMDFPAVTICNASPFKYSKIKHLLKDLDELMEAVLERILAPELSHANATRNLNFSIWNHTPLVLIDERNPHHPMVLDLFGDNHNGLTSSSASEKICNAHGCKMAMRLCSLNRTQCTFRNFTSATQALTEWYILQATNIFAQVPQQELVEMSYPGEQMILACLFGAEPCNYRNFTSIFYPHYGNCYIFNWGMTEKALPSANPGTEFGLKLILDIGQEDYVPFLASTAGVRLMLHEQRSYPFIRDEGIYAMSGTETSIGVLVDKLQRMGEPYSPCTVNGSEVPVQNFYSDYNTTYSIQACLRSCFQDHMIRNCNCGHYLYPLPRGEKYCNNRDFPDWAHCYSDLQMSVAQRETCIGMCKESCNDTQYKMTISMADWPSEASEDWIFHVLSQERDQSTNITLSRKGIVKLNIYFQEFNYRTIEESAANNIVWLLSNLGGQFGFWMGGSVLCLIEFGEIIIDFVWITIIKLVALAKSLRQRRAQASYAGPPPTVAELVEAHTNFGFQPDTAPRSPNTGPYPSEQALPIPGTPPPNYDSLRLQPLDVIESDSEGDAI
chain 3: MAPGEKIKAKIKKNLPVTGPQAPTIKELMRWYCLNTNTHGCRRIVVSRGRLRRLLWIGFTLTAVALILWQCALLVFSFYTVSVSIKVHFRKLDFPAVTICNINPYKYSTVRHLLADLEQETREALKSLYGFPESRKRREAESWNSVSEGKQPRFSHRIPLLIFDQDEKGKARDFFTGRKRKVGGSIIHKASNVMHIESKQVVGFQLCSNDTSDCATYTFSSGINAIQEWYKLHYMNIMAQVPLEKKINMSYSAEELLVTCFFDGVSCDARNFTLFHHPMHGNCYTFNNRENETILSTSMGGSEYGLQVILYINEEEYNPFLVSSTGAKVIIHRQDEYPFVEDVGTEIETAMVTSIGMHLTESFKLSEPYSQCTEDGSDVPIRNIYNAAYSLQICLHSCFQTKMVEKCGCAQYSQPLPPAANYCNYQQHPNWMYCYYQLHRAFVQEELGCQSVCKEACSFKEWTLTTSLAQWPSVVSEKWLLPVLTWDQGRQVNKKLNKTDLAKLLIFYKDLNQRSIMESPANSIEMLLSNFGGQLGLWMSCSVVCVIEIIEVFFIDFFSIIARRQWQKAKEWWAWKQAPPCPEAPRSPQGQDNPALDIDDDLPTFNSALHLPPALGTQVPGTPPPKYNTLRLERAFSNQLTDTQMLDEL
notes: ENaC alpha subunit; ENaC beta subunit; ENaC gamma subunit; The trypsin treatment may also cut the subunits themselves; also called αβγ ENaC; source: HEK293S GnTI- cells, baculovirus, purified (GFP nanobody resin, eluted with trypsin, SEC) as described for ENaC δβγ; copies: + +
  percent of total NEDD4-2 bound at a 1:5 NEDD4-2:ENaC αβγ ratio: ~20%
